Laboratory results: paper PMC3447989

Biological target: Treponema denticola superoxide reductase (Treponema denticola (strain ATCC 35405))
Assay: SEC

With “Treponema denticola superoxide reductase (enzyme)” the stoichiometry N was 2.
